These results are taken from PMC3539207.

Read-outs that look alike come from different tables or passages of the source.

What all share (assay): fluorescence polarization
A general note: Polarisation of emitted light reports the rotation of a fluorescent probe.

The target of series [1] is T1, GR DBD WT (Homo sapiens, UniProt P04150 417-506).
The target in series [2] is T1, GR DBD WT. This is another data set of the same source.
Series [3] has as its target T1, GR DBD WT. The source holds these as a separate data set.
The target in another series is GR DBD R460D/D462R (Homo sapiens, UniProt P04150 417-506, R460D;D462R).
GR DBD R460D/D462R, sequence (P04150 417-506 R460D/D462R): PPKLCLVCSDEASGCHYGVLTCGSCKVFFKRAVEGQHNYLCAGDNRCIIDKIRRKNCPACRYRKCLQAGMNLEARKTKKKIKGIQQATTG

T1 sequence (P04150 417-506): as the sequence (P04150 417-506 R460D/D462R) above, with D44R, R46D counted along it

B1: TSLP, low site only (dsDNA)
DNA 1: CCGCCTCCGG
DNA 2: CCGGAGGCGG
As for B1, the Kd (as a rule, the concentration at which binding is half-saturated) with GR DBD WT [1] is 12700 ± 800 nM.

B2: INS nGRE (dsDNA)
DNA 1: TGCTCTCCTGGAGACATT
DNA 2: AATGTCTCCAGGAGAGCA
In the series with GR DBD WT [2], B2 returned a Kd of 500 ± 70 nM.

B3: (+)GRE (dsDNA)
DNA 1: CCAGAACAGAGTGTTCTGA
DNA 2: TCAGAACACTCTGTTCTGG
B3: the Kd worked out at 70 ± 7 nM in the series with GR DBD WT [3] and 80 ± 7 nM with GR DBD R460D/D462R.

B4: FGFR3 nGRE (dsDNA)
DNA 1: CTGCCTCCCCGGAGATGG
DNA 2: CCATCTCCGGGGAGGCAG
B4 gave a Kd with GR DBD WT [2] of 280 ± 80 nM.
